{
  "source": "paper PMC6361964",
  "about": "“A transcription factor PU.1 is critical for Ccl22 gene expression in dendritic cells and macrophages”",
  "binders": {"B1": {"name": "Site 2 probe, mouse Ccl22 promoter (dsDNA)", "DNA 1": "GTGGGACTTCTTCTTTCAG", "DNA 2": "CTGAAAGAAGAAGTCCCAC"}, "B2": {"name": "Site 1 probe, mouse Ccl22 promoter (dsDNA)", "DNA 1": "GGCTGGGGGAAGTGGGAC", "DNA 2": "GTCCCACTTCCCCCAGCC"}, "B3": {"name": "Site 1&2 probe, mouse Ccl22 promoter (dsDNA)", "DNA 1": "CGCTGGGGGAAGTGGGACTTCTTCTTTCAG", "DNA 2": "CTGAAAGAAGAAGTCCCACTTCCCCCAGCG"}},
  "biological_target": "PU.1 (UniProt P17433 1-272)",
  "test": "EMSA; anti-PU.1 Ab control; EMSA in 5% acrylamide gels with fluorescence detection; buffer, salt, pH and temperature not in the material",
  "settings": "protein: ivt; label: FLO (fluorescent)",
  "data": [
    {"binder": "B1", "values": [
      {"measurement": "binding result", "result": "binds"}
    ]},
    {"binder": "B2", "values": [
      {"measurement": "binding result", "result": "binds"}
    ]},
    {"binder": "B3", "values": [
      {"measurement": "binding result", "result": "binds"}
    ]}
  ]
}
